Results from patent US20090291088A1 (Biogen, published 2009).

What was measured:
[1] = biological target: T1, human IGF-1R expressed on cells (human, UniProt P08069 31-1367); assay: flow cytometry, MCF-7 cells
T1 construct: On MCF-7 tumor cells or on 3T3/CHO transfectants; precursor is processed into alpha and beta subunits; Signal peptide 1-30 left out as stated; also called wild type IGF-1R; IGF-1R 3T3
Experimental: The ability of Fabs to bind to the wild type IGF-1R was determined by flowcytometry using MCF-7 tumor cell line.
MCF-7 cells (Human Breast Adenocarcinoma from NCI) were split 24 hours prior to the setup of the assay to obtain 70% confluent monolayer. Routinely, MCF-7 cell line was maintained within 20 passages. Cells were lifted with cell dissociation buffer (Gibco catalog #13151-014), counted, washed and adjusted to 1×10⁶ cells/ml and one ml of cells were then added to each tube (12×75 mm tube Falcon catalog# 352054). Cells were pelleted and supernatant removed by centrifugation at 1200 rpm for 5 min and 100 μl of diluted antibodies were then added to the cell pellet. Purified Fabs were tested at a starting concentration of either 210 or 60 μg/ml with 1:3 dilutions in FACS buffer, down to 0.001 μg/ml. FACS buffer used throughout the assay was PBS (without Ca++/Mg++) containing 1% BSA (Sigma catalog# A-7906; Sigma-Aldrich Corp. (St. Louis, Mo., USA)) and 0.1% Sodium Azide (Sigma catalog #S2002). […] Samples were allowed to incubate on ice for 1 hour and 15 minutes then were washed with 2 ml FACS buffer and centrifuged at 1200 rpm for 5 minutes at 4° C. The supernatant was aspirated and 100 μl of the secondary detection antibody was added to each corresponding tube in FACS buffer. Samples were then incubated for 30 minutes on ice, in the dark. Cells were washed as described above, then, re-suspended in […] FACS buffer per tube/sample.
Cells were stained for live cell determination with Propidium Iodide staining solution (PI for dead cell exclusion; BD Pharmingen catalog# 51-66211E or 556463; use at 1:500 final in FACS buffer). Samples were run on the FACSCalibur instrument (Becton Dickinson) with 10,000 live events collected per sample.

[2] = biological target: T2, hIGF-1R-Fc mutant SD015 (H464E) (human, UniProt P08069 31-933); assay: SPR, Fab over captured mutant
T2 construct: not shown: C-terminal human IgG1-Fc tag

[3] = biological target: T3, hIGF-1R-Fc mutant SD102 (E459A, S460A) (human, UniProt P08069 31-933); assay: SPR, Fab over captured mutant
T3 construct: not shown: C-terminal human IgG1-Fc tag

[4] = biological target: T4, hIGF-1R-Fc mutant SD103 (D461A, V462T) (human, UniProt P08069 31-933); assay: SPR, Fab over captured mutant
T4 construct: not shown: C-terminal human IgG1-Fc tag

[5] = biological target: T5, hIGF-1R-Fc mutant SD104 (H464A) (human, UniProt P08069 31-933); assay: SPR, Fab over captured mutant
T5 construct: not shown: C-terminal human IgG1-Fc tag

[6] = biological target: T6, hIGF-1R-Fc mutant SD108 (H480E) (human, UniProt P08069 31-933); assay: SPR, Fab over captured mutant
T6 construct: not shown: C-terminal human IgG1-Fc tag

[7] = biological target: T7, hIGF-1R-Fc mutant SD109 (Y482A, R483W) (human, UniProt P08069 31-933); assay: SPR, Fab over captured mutant
T7 construct: not shown: C-terminal human IgG1-Fc tag

[8] = biological target: T8, hIGF-1R-Fc mutant SD110 (E533H) (human, UniProt P08069 31-933); assay: SPR, Fab over captured mutant
T8 construct: not shown: C-terminal human IgG1-Fc tag

[9] = biological target: T9, hIGF-1R-Fc mutant SD113 (E570A, I571T) (human, UniProt P08069 31-933); assay: SPR, Fab over captured mutant
T9 construct: not shown: C-terminal human IgG1-Fc tag

[10] = biological target: T10, human IGF-1R(1-902)-His10 (human, UniProt P08069 31-932); assay: SPR, Fab over captured IGF-1R-10His
T10 construct: Cy5-labelled in tr-FRET; also called hIGF-1R-His10; IGF-1R-His
Experimental: All surface plasmon resonance (SPR) experiments were performed on a Biacore 3000 set to 25° C. using HBS-EP (Biacore, Cat. No. BR-1001-88) as the running buffer. A biotin-labeled anti-HisTag antibody (biotin-PENTA-His, Qiagen Cat. No. 34440) was immobilized to saturation on a Biacore SA chip (Cat. No. BR-1000-32) surface by injection at 500 nM in HBS-EP buffer. […] Subsequent to IGF-1R injections, flow rates were increased to 20 μL/min. A second, 130 μL injection of anti-IGF-1R antibody or Fab was performed to investigate interactions with the receptor. Each antibody and Fab was serially diluted from 64 nM to 0.5 nM to obtain concentration dependent kinetic binding curves. Each injection series was regenerated using 3×10 μL injections of 10 mM Acetate, pH 4.0, at 20 μL/min. Each curve was double referenced using (1) data obtained from a streptavidin surface devoid of IGF-1R and (2) data from a primary injection of IGF-1R followed by a secondary injection of HBS-EP buffer. The concentration series for each antibody and Fab was fit to the 1:1 binding model provided within the BiaEvaluation software of the manufacturer.
To obtain discrete affinities, Fab fragments of each antibody were generated using papain digestion as described above.

[11] = biological target: T11, hIGF-1R-Fc mutant SD008 (S257F) (human, UniProt P08069 31-933); assay: SPR, Fab over captured SD008
T11 construct: not shown: C-terminal human IgG1-Fc tag
Experimental: (§1) Surface plasmon resonance (SPR) experiments were performed on a Biacore 3000 instrument set to 25° C. […] The antibody sensorchip surfaces were prepared by injecting each antibody (diluted 100 μg/mL in 10 mM Acetate, pH 4.0) over EDC/NHS-activated sensorchip surfaces according to the standard protocol of the manufacturer. […] Both hIGF-1R-Fc and mIGF-1R-Fc proteins oligomerize due to the incorporation of two separate homodimeric regions (IGF-1R and IgG1-Fc). […] After, completion of the receptor-Fc loading step, flow rates were elevated to 5 μl/min. […] Dissociation was measured for 7 minutes after the antibody injections were complete. Finally, the flow rate was elevated to 30 μL/min and the chip surfaces were regenerated by 2×10 μL injections of 0.1 M glycine, pH 2.

[12] = biological target: T12, hIGF-1R-Fc mutant SD012 (E303G) (human, UniProt P08069 31-933); assay: SPR, Fab over captured SD012
T12 construct: not shown: C-terminal human IgG1-Fc tag
Experimental: as §1

[13] = biological target: T2, hIGF-1R-Fc mutant SD015 (H464E); assay: SPR, Fab over captured SD015
[14] = biological target: T13, hIGF-1R-Fc mutant SD201 (D248A) (human, UniProt P08069 31-933); assay: SPR, Fab over captured mutant
T13 construct: not shown: C-terminal human IgG1-Fc tag

[15] = biological target: T14, hIGF-1R-Fc mutant SD202 (D250S) (human, UniProt P08069 31-933); assay: SPR, Fab over captured mutant
T14 construct: not shown: C-terminal human IgG1-Fc tag

[16] = biological target: T15, hIGF-1R-Fc mutant SD203 (N254A) (human, UniProt P08069 31-933); assay: SPR, antibody over captured mutant
T15 construct: not shown: C-terminal human IgG1-Fc tag
Experimental: as §1

[17] = biological target: T16, hIGF-1R-Fc mutant SD207 (G265Y) (human, UniProt P08069 31-933); assay: SPR, antibody over captured mutant
T16 construct: not shown: C-terminal human IgG1-Fc tag
Experimental: as §1

human IGF-1R(1-903)-Fc [18] = biological target: T17, human IGF-1R(1-903)-Fc (human, UniProt P08069 31-933); assay: ELISA on hIGF-1R-Fc, competitor Zenon-labelled αIR3
T17 construct: Made by Biogen Idec; Multimerises through IGF-1R and Fc; also called hIGF-1R-Fc; IGF-1R-Fc; not shown: C-terminal human IgG1-Fc tag

human IGF-1R(1-903)-Fc [19] = biological target: T17, human IGF-1R(1-903)-Fc; assay: ELISA on hIGF-1R-Fc, competitor biotinylated M14-G11

B1: M14-C03 Fab (Fab, V domains shown)
VH: EVQLLESGGGLVQPGGSLRLSCAASGFTFSKYMMSWVRQAPGKGLEWVSYISPSGGLTWYADSVKGRFTISRDNSKNTLYLQMNSLRAEDTAVYYCARDGARGYGMDVWGQGTTVTVSS
VL: DIQMTQSPATLSLSPGERATLSCRASQSVSSYLAWYQQKPGQAPRLLIYDASNRATGIPARFSGSGSGTDFTLTISSLEPEDFAVYYCQQRSNWPPEVTFGPGTKVDIK
notes: Human phage Fab, kappa
EC50 [1]: 25.4 nM
binding result [2]: no binding (tested: 30 nM)
binding result [3]: no binding (tested: 30 nM)
binding result [4]: no binding (tested: 30 nM)
binding result [5]: no binding (tested: 30 nM)
binding result [6]: no binding (tested: 30 nM)
binding result [7]: no binding (tested: 30 nM)
binding result [8]: no binding (tested: 30 nM)
binding result [9]: no binding (tested: 30 nM)
Kd [10]: 4.9 nM
koff [10]: 0.00094 s⁻¹
kon [10]: 190000 M⁻¹ s⁻¹

B2: M14-G11 Fab (Fab, V domains shown)
VH: EVQLLESGGGLVQPGGSLRLSCAASGFTFSNYPMYWVRQAPGKGLEWVSRISSSGGRTVYADSVKGRFTISRDNSKNTLYLQMNSLRAEDTAVYYCARDRWSRSAAEYGLGGYWGQGTLVTVSS
VL: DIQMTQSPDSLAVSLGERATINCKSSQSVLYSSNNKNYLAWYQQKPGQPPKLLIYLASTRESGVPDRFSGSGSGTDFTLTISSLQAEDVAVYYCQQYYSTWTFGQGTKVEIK
notes: Human phage Fab, kappa
fold loss in affinity against wild-type [11]: ~3 fold
fold loss in affinity against wild-type [12]: ~3 fold
Kd [13]: 4 to 6 nM
EC50 [1]: 39.8 nM
binding result [14]: no binding (tested: 30 nM)
binding result [15]: no binding (tested: 30 nM)
Kd [10]: 4 nM
koff [10]: 0.0012 s⁻¹
kon [10]: 300000 M⁻¹ s⁻¹

B3: P1E2 (chimeric antibody) (antibody, human IgG4, V domains shown)
VH: QVQLQQPGAELVKPGASVKLSCKASGYTFTSYWMHWVKQRPGQGLEWIGEINPTYGRSNYNEKFKSKATLTVDKSSSTAYMQLSSLTSEDSAVYYCARLVRLRYFDVWGAGTTVTVSS
VL: DIVMTQAAFSNPVTLGTSASISCRSSKSLLHSNGITYLYWYLQKPGQSPQLLIYQMSNLASGVPDRFSSSGSGTDFTLRISRVEAEDVGVYYCAQNLELPYTFGGGTKLEIK
notes: also called chimeric antibody P1E2
binding result [16]: no binding (tested: 30 nM)
binding result [17]: no binding (tested: 30 nM)
percent competition (relative to self-competition) (human IGF-1R(1-903)-Fc [18]): 90 to 100%
percent competition (relative to self-competition) (human IGF-1R(1-903)-Fc [19]): 90 to 100%
